This note sets out measurements from patent US20250289905A1 (MIRIMGENE, published 2025).

T1: pig-derived WARS1 recombinant protein (pig) (UniProt K9IVV5)
T1 sequence: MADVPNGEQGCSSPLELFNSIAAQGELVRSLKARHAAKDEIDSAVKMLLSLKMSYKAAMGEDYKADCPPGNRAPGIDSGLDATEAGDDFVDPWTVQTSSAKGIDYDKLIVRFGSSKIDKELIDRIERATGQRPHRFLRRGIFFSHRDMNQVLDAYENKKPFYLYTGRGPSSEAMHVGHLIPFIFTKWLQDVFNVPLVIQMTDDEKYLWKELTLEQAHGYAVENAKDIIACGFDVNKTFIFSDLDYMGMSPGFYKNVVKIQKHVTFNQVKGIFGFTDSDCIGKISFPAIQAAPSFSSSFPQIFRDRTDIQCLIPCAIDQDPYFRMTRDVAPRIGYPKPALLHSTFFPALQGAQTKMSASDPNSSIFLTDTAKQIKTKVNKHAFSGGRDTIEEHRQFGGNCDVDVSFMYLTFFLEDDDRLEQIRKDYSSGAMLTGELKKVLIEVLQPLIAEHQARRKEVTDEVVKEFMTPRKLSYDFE

T2: human WARS1 recombinant protein (human, UniProt P23381 2-471, limits assumed)
T2 construct: Recombinant protein, detected with an anti-His tag antibody; In the western blot also secreted WARS1 from THP-1 supernatant and human serum; also called human-derived WARS1 recombinant protein
T2 sequence: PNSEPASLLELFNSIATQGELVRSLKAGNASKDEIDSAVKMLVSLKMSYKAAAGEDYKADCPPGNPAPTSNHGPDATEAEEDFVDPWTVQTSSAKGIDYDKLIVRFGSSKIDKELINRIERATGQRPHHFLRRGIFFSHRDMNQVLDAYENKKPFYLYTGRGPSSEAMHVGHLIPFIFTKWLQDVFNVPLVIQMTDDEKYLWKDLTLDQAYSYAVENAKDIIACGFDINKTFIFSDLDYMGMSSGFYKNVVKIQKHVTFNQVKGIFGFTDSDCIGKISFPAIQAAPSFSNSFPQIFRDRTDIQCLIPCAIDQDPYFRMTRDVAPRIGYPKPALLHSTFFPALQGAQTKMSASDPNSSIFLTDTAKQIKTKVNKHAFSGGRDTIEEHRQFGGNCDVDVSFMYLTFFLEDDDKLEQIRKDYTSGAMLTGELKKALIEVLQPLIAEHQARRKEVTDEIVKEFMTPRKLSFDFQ

T3: mouse-derived WARS1 recombinant protein (mouse, UniProt P32921 1-481, limits assumed)
T3 construct: Recombinant, His-tagged (detected with anti-His tag antibody); construct not described; In the western blot also secreted WARS1 from J774A.1 supernatant and mouse serum; also called mouse WARS1
T3 sequence (looked up): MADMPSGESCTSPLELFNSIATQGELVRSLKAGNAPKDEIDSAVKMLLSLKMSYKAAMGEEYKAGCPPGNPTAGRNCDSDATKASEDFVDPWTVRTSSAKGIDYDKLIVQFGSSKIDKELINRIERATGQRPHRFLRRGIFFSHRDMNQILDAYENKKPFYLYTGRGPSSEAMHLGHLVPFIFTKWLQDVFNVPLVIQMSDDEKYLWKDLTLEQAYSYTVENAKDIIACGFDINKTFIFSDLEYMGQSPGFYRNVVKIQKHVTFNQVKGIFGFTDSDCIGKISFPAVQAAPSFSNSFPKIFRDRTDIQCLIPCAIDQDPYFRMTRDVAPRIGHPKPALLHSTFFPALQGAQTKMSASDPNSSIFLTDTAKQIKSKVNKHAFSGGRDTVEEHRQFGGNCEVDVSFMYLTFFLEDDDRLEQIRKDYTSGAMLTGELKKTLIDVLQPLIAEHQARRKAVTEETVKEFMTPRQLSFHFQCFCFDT

T4: rat-derived WARS1 recombinant protein (rat, UniProt Q6P7B0 1-481, limits assumed)
T4 construct: Recombinant, His-tagged (detected with anti-His tag antibody); construct not described; also called rat WARS1
T4 sequence (looked up): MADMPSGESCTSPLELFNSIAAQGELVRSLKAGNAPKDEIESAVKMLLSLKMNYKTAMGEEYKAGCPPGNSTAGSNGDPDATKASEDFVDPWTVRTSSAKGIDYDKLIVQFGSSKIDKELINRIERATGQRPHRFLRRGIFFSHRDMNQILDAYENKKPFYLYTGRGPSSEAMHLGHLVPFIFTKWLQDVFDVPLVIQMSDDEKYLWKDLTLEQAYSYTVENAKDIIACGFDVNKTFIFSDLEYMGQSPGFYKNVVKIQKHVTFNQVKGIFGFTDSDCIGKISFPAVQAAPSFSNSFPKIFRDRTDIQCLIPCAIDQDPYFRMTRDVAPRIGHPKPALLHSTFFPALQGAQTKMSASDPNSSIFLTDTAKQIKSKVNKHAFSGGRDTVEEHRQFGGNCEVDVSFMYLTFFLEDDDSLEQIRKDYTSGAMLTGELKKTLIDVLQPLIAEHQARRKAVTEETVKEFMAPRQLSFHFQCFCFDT

B1: S53L (antibody, V domains shown)
VH: EVQLLESGGGLVQPGGSLRLSCAASGFTFSSYDMSWVRQAPGKGLEWVSAISSGGSSIYYADSVKGRFTISRDNSKNTLYLQMNSLRAEDTAVYYCARDVAWDMLGDFDYWGQGTLVTVSS
VL: QSVLTQPPSASGTPGQRVTISCTGSSSNIGSNYVYWYQQLPGTAPKLLIYANLHRPSGVPDRFSGSKSGTSASLAISGLRSEDEADYYCGAWDDSLSAYVFGGGTKLTVLT
notes: L-CDR2 variant of GKB101; also called S53L antibody
B2: H54K (antibody, V domains shown)
VH: B1 VH
VL: B1 VL with L53S, H54K
notes: L-CDR2 variant of GKB101; also called H54K antibody; M105A
B3: S53Q (antibody, V domains shown)
VH: B1 VH
VL: B1 VL with L53Q
notes: L-CDR2 variant of GKB101; also called S53Q antibody
B4: H54Q (antibody, V domains shown)
VH: B1 VH
VL: B1 VL with L53S, H54Q
notes: L-CDR2 variant of GKB101; also called H54Q antibody
B5: S53V (antibody, V domains shown)
VH: B1 VH
VL: B1 VL with L53V
notes: L-CDR2 variant of GKB101; also called S53V antibody
B6: SH/QL (antibody, V domains shown)
VH: B1 VH
VL: B1 VL with L53Q, H54L
notes: L-CDR2 variant of GKB101; also called SH/QL antibody
B7: H54L (antibody, V domains shown)
VH: B1 VH
VL: B1 VL with L53S, H54L
notes: L-CDR2 variant of GKB101; also called H54L antibody
B8: GKB101 (antibody, V domains shown)
VH: B1 VH
VL: B1 VL with L53S
notes: Parent antibody; expressed in Expi293 cells; also called GKB101 antibody; anti-WARS1 antibody
B9: S53I (antibody, V domains shown)
VH: B1 VH
VL: B1 VL with L53I
notes: L-CDR2 variant of GKB101; also called S53I antibody
B10: SH/IL (antibody, V domains shown)
VH: B1 VH
VL: B1 VL with L53I, H54L
notes: L-CDR2 variant of GKB101; also called SH/IL antibody
B11: H54F (antibody, V domains shown)
VH: B1 VH
VL: B1 VL with L53S, H54F
notes: L-CDR2 variant of GKB101; also called H54F antibody
B12: SH/LL (antibody, V domains shown)
VH: B1 VH
VL: B1 VL with H54L
notes: L-CDR2 variant of GKB101; also called SH/LL antibody
B13: H54I (antibody, V domains shown)
VH: B1 VH
VL: B1 VL with L53S, H54I
notes: L-CDR2 variant of GKB101; also called H54I antibody
B14: S53T (antibody, V domains shown)
VH: B1 VH
VL: B1 VL with L53T
notes: L-CDR2 variant of GKB101; also called S53T antibody

Changes are numbered by the printed parent chain. Numbers in names are those of the source.

In one test the target is T1, pig-derived WARS1 recombinant protein (pig). Put plainly: direct ELISA. A general note: ELISA stands for enzyme-linked immunosorbent assay.
As to B1, the Kd came to 1000 pM.

As to B2, the Kd turned out to be 1000 pM.

As to B3, the Kd was determined as 1000 pM.

As to B4, the dissociation constant Kd worked out at 1000 pM.

Regarding B5, the Kd worked out at 1000 pM.

In the next test the target is T2, human WARS1 recombinant protein. Put plainly: direct ELISA. Here is the method:
(§1) Specifically, for direct ELISA, a 96-well plate (Maxisorp, Thermo Fisher) was coated with WARS1 having a 1 μg/ml concentration of a recombinant protein derived from human, marmoset (NHP), mouse, rat, and pig, and then blocked with PBS containing 1% BSA at room temperature for 1 hour. The GKB101 antibody or a variant antibody thereof was diluted in a concentration-dependent manner, added to each coated well, reacted at room temperature for 1 hour, and then washed four times with PBST (PBS+Tween20). Each well was treated and reacted for 1 hour with an antibody (anti-Human IgG, cell signaling) to which HRP is attached, and then washed with PBST. Lastly, after developing with a TMB substrate (BD), its absorbance was measured at 490 nm (NIVO) (FIGS. 4a to 5).
B2: the Kd is roughly 1 pM.

Regarding B3, the Kd is roughly 1 pM.

For the molecule B6, the Kd is roughly 1 pM.

The target of a further test is T3, mouse-derived WARS1 recombinant protein. The test can be described thus: direct ELISA. Here is the method:
as §1
Consider B2, for which the Kd is roughly 1 pM.

As to B3, the Kd is roughly 1 pM.

As to B4, the Kd was roughly 1 pM.

For the molecule B5, the Kd was roughly 1 pM.

In the case of B6, the Kd was roughly 1 pM.

A further test deals with T4, rat-derived WARS1 recombinant protein. The test can be described thus: direct ELISA. As to the method: as §1
For the molecule B2, the Kd was roughly 1 pM.

For the molecule B3, the Kd was roughly 1 pM.

B4: the Kd was roughly 1 pM.

In the case of B5, the Kd was roughly 1 pM.

Take B7: the Kd was roughly 1 pM.

B6: the Kd was roughly 1 pM.

Another test has as its target T2, human WARS1 recombinant protein. The test can be described thus: cell-based or functional assay.
With B8, the “secretion of TNF-α in mouse macrophage J774A.1 cells” value (shortened to “secretion of TNF-α”) is no less than 40%.

In the case of B1, the “secretion of TNF-α” value was no less than 40%.

For the molecule B2, the “secretion of TNF-α” value was no less than 40%.

As to B3, the “secretion of TNF-α” value is no less than 40%.

On to B9, for which the “secretion of TNF-α” value is no less than 40%.

Another test addresses T4, rat-derived WARS1 recombinant protein. Put plainly: western blot; recombinant protein. As to the method:
(§2) At this time, a WARS1 recombinant protein (human, mouse, pig, marmoset (NHP), or rat-derived), cell culture medium, and human or mouse serum were used as WARS1 protein samples. In particular, the cell culture medium was used by treating the human monocyte cell line, THP-1, or the mouse macrophage cell line, J774.1A, with LPS (lipopolysaccharide, 100 ng/ml) for 24 hours to induce an inflammatory response, and then the cell culture supernatant was obtained for use.
(§3) 30 μg of each of the WARS1 recombinant protein (human, mouse, pig, marmoset (NHP), or rat-derived), the cell supernatant obtained using the method above, and mouse or human serum was loaded onto 8% SDS-PAGE, then transferred to a PVDF membrane (Millipore). Afterwards, the membrane was reacted with 1 μg/ml of GKB101 or a variant antibody thereof for 1 hour each, then washed with TBST (TBS+Tween20) three times. Afterwards, it was reacted with a secondary antibody (anti-human IgG HRP, Millipore) for 1 hour, then washed with TBST three times to be treated with ECL (West® bright ECL, Advanta) to identify its protein expression (LAS-4000, Fujifilm).
For orientation: In western blotting, separated proteins are transferred to a membrane and probed.
For B8, the binding result is “binds”.

As to B1, the binding result was “binds”.

For the molecule B10, the binding result is “binds”.

Take B9: the binding result is listed as “binds”.

Take B11: the binding result is “binds”.

Take B12: the binding result is listed as “binds”.

For B13, the binding result was “binds”.

On to B14, for which the binding result is reported as “binds”.

A further test addresses T2, human WARS1 recombinant protein. The test can be described thus: western blot; recombinant protein, THP-1 culture supernatant, human serum. As to the method:
as §2, §3
Regarding B10, the binding result is listed as “binds”.

Take B4: the binding result was “binds”.

For the molecule B5, the binding result is recorded as “binds”.

In the case of B11, the binding result is on record as “binds”.

B12: the binding result is on record as “binds”.

In the case of B7, the binding result was “binds”.

Turning to B13, the binding result was “binds”.

On to B14, for which the binding result is “binds”.

The next test deals with T3, mouse-derived WARS1 recombinant protein. Put plainly: western blot; recombinant protein, J774A.1 culture supernatant, mouse serum. As to the method:
as §2, §3
Regarding B8, the binding result is recorded as “binds”.

As to B1, the binding result was “binds”.

B10: the binding result was “binds”.

Consider B9, for which the binding result is “binds”.

Regarding B11, the binding result is “binds”.

With B12, the binding result was “binds”.

For the molecule B7, the binding result is “binds”.

In the case of B13, the binding result is reported as “binds”.

Consider B14, for which the binding result is reported as “binds”.

Broadly, the Kd is the free concentration of one partner at which half of the binding sites on the other are occupied at equilibrium, for simple one-to-one binding.
